assay: soluble on expression in E. coli; label from the status in PepcDB or PDB records

Row | Sequence | soluble on expression in E. coli
1 | MNNDVTRILKDARDQGRLTALDYAELIFDNFMELHGDRQFADDKSIIGGLGYLAGRPVTIVGIQKGKNLQDNLDRHFGQPHPEGYRKALRLMKQAEKFGRPVITFINTAGAYPGVGAEERGQGEAIARNLLEMSDLKVPIIAIIIGEGGSGGALALAVADKVWMLEHTVYSILSPEGFASILWKDGTRTTEAAQLMKMTAGELYHMEVVDKVIPEHGYFSSEIVDMIKTSLISELEVLSQLSLEDLLEQRYQRFRKY | not soluble
2 | MIEIKHLKTLQALRNSGSLAAAAAVLHQTQSALSHQFSDLEQRLGFRLFVRKSQPLRFTPQGEVLLQLANQVLPQISRALQACNEPQQTRLRIAIECHSCIQWLTPALENFRASWPQVEMDFTSGVTFDPQPALQQGELDLVMTSDILPRSGLHYSPMFDFEVRLVLAPDHPLASKTQITPEDLASETLLIYPVQRSRLDVWRHFLQPAGISPLLKSVDNTLLLIQMVAARMGIAALPHWVVESVERQGLVVTKTLGDGLWSRLYAAVRDGDQRQAVTEAFIRSTRDHACDHLPFVRSAERPIFDAPTAKPGSQPRL | not soluble
3 | GTTDAQGFATVEIKQSQGVGLSTPLNIVPVNSYIPNTVNYNVIFTTLTSPDAVGAQMWGHMDETITVDALTFARPRLAAEVFSPDGTLTENNEVWSRVSQANASSTSKGGCGANMLPRRSQLSALYDANNGNGVQTVHGWPTQRQPYWSSSPADQVPHYYTIALNDGARTVGGSTAVYVSCLTTANNP | not soluble
4 | MGSDKIHHHHHHMFIETLNLSHFRNFSEVALSPSPKINIITGDNGSGKTSLLEAIYLLGFGRSFRPGGFRQLIKEGNSGFTVFCRSQDYAIGVRRSTDGEQSLRLNGANVQRMSDVARLVPVQLLTPESVDILLEGPGQRRQFIDWGVFHVEHSFYSDWVAYTQLLKQRNSLLKQRSLPVREDRYWKEQLAYYGERISKSREKYLEELNDYIQELAKSFLSDVTMEVRLKSGWDTSQSLFDALESHTEKDKKYGFTSVGAHKADIKVIADGVEVKHRLSRGQLKTAITALKLAQGKHYQKIKRQPCIYLVDDLTSELDSKNQALLCRELENLDAQVFITAITGKQLSDKFQKSPRMFHVEHGVINE | not soluble
5 | NSSKSLEAELVRDRQELIDARKKELKAYMMMGVTAIKPLYDSDVNGSNKQAAKEILKAMRFESDGYFFAYDSQGINTLHAIKPSLEGKNLYDLKDENGVAVIAGLIDASQKGDGFLYFSWHKPTINAQAPKLGYAEYLQKWDWVLGTGIYIDDIDQQVAMQRELRTQELNQHT | soluble
6 | MVCVSFPLFPEREADLCQRLVHLLDELRHHFVEIGHVLRIPLNDDVVNAFAFHARVVVCKEPCVFSGHPHAVLHLGHVRRLDGFETAKAEFHEVAGGERAFKLKAEPVTAQAVRGAGGAHALVTEQDRRLRDFHVSGELEEGAGVFFVLLAPGQRLGVNLWRYTGAYLGEQGVEVGHFHVCPFAARSRLGNDVVSVRGSNNSEP | not soluble
7 | MGSDKIHHHHHHMYSIVEGDRVLEIGFMEHFMFLDFPTLVDIPIGLPKKGERECDRLTRRILSKRAASVFTVPCRVAVYRESYEDALRVNRECQGKGFPVQFWHIVEKVREVDVFLRSYPDLSDQIRESHPELCFLRISSKMMKSKHTREGLNQRIEILREHLVFDVENLQRICREYRIHIHDVLDSLVLALAQQFPLERIPEDPPLDEHGLPMQIIAPARTQRSPNPE | not soluble
8 | MSLSKASLQEMAVKYIAEQIGEHDSEQIHLSALPLDSRIPDRACSTTPDIISSSEPPFNRQITIQVKCDDPQSWAQYVHIKVLKMAPVVVTTDNIARGEVITSAHITVEMKPTHFVRVQYQDDPKALIGSRSKRNIREGMPILLNQICMVCKGDAINIYASTKGLQIKTTGVALEDGTLGEQILVENKKTGKVLNARVDGVESVQVNIEGHHHHHH | not soluble
9 | MKYRIVRIELKSDDEVTLYLKSASRKPGVMAKADFSDPVKVIEFGLQMGMDLARRIEELMQFDAFLTVPYDYYSMNELKVGDVVEVEVRLAER | not soluble
10 | MGSDKIHHHHHHMVTLEPENKVRKILITDCADAKGLIAKITGVCFAHQLNIIKNTEFVDRIQGRFFMRTVLEGVFDDASLLKALSEVLPAQNHTKLVAADKKRIVVMVTKEAHCLGDLLMKAYYGGLDVDIAAVVGNYDSLRNLTEKFDIPFHHVCHQGLDRLEHEQAILKIVNGYQPDYVVLAKYMRVLTPEFVCAYPDRIINIHHSFLPAFIGASPYKQAWERGVKIIGATAHFVNDCLDEGPIIKQDVISVDHTFSAEEMAHNGRDVEKSVLSKALQLVLNEQVIVYGNKTVVF | not soluble
11 | MWQCHLSAQDYRYYPVDGYSLLKRFPLHPLTGPRCPVQTVGQWLESIGLPQYENHLMANGFDNVQFMGSNVMEDQDLLEIGILNSGHRQRILQAIQLLPKMRPIGHDGYHPTSVAEWLDSIELGDYTKAFLINGYTSMDLLKKIWEVELINVLKINLIGHRKRILASLGDRLHDDPPQKPPRSITLRTGDWGEPSITLRPPNEATASTPVQYWQHHPEKLIFQSCDYKAFYLGSMLIKELRGTESTQDACAKMRANCQKSTEQMKKVPTIILSVSYKGVKFIDATNKNIIAEHEIRNISCAAQDPEDLSTFAYITKDLKSNHHYCHVFTAFDVNLAYEIILTLGQAFEVAYQLALQARKGGHSSTLPESFENKPSKPIPKPRVSIRKSVDLLHASHTGQEPSERHTEEALRKF | soluble
12 | MGSDKIHHHHHHMDHQIEDLLEHWLPLADDAWVLAVITHVQGSAYRKPGAMMLFHEFGQGAGILSGGCLEADLRRYAQNAMQTKQVMCVTYDASDESDASYRLGCGGIVDIMLIPLLKENHDLGLIDLVHAFRHGQSGYYQLPLVASGTDARQYQARFYSADAAPFPISDFAKSKIVKQESNDTLVIPLRPRFHIGIFGGGIDAKPIAAIAHSLGWQVTVIDGRTAYARAADFPHAHIIKQAVGELAANVIAQLDCAVVINHNLGLDAAVLKAIQPYSLDYVALLGPAHRRDKVLAMAGLSAQSFSGVFSAPAGLALGGELPSAIALSILAQCHGVLHGATLKQLDEIMG | not soluble
13 | MSLESKYTVLDMFSGAGGLTEGFFQQGFKFVSHIEKNCHARNSLETRAIYHSLKDSSNERIYRDYISGNLNRDEFIHKFKELELTPAGLLQGEVTESNETTMIKEIKEHLKVIDSDSVDVVIGGPPCQAYSVAGRGRKPKEMKDDPRNYLYRHYISFLKSFEPKIFVFENVPGIKSAINGIIFSNLHEELEKLGYKTEAHMLNAKDFSVLQERNRIIFIGWKNEHDLSYPDFLKTPLGRFHVSSLLNDLPPLQAGEGTEGPAKYTKPFSWSSEYLQRFKIREKKDILIQHNARIHNPRDRTIYRLAIEKWDKERKRLKYNELSPELQTHKNKTSFLDRFKVVNQYGYSHAILAHISKDGHYFIHPDIHQARSLTVREVARIQSFPDNYKFEGPRIAQYAQIGNAVPPLMAKGIAVEIEKMLEEISEGHHHHHH | not soluble
14 | MGHHHHHHSHMYAFTLHPNAQHRRTRIGTSVDLSCLLCFRIGGFYALSPYPGLRLISLNMNFCSRENFWLLINSTDPAGQLQWLVGELQAAEDRGDKVRASSGNTVVLGDKQAPVELEHLWAQKFYFPGIPNKCSLGIQLMVTVESLHSVPLSLARAAWTPGCPDYHP | not soluble
15 | FDISVLSVAPLRQGETMKQGIDSAVSLAKAVDNMGYKRIWFAEHHNHDAYASAATVSIVQHILANTKDIRVGSGGIMLPNHSPLIVAEQFGTLETLYPNRVDLALGRAPGTDQKTADVIRRSNHNGVFFFEREVNDILRFVGDKSVQGEVRAYPGIGTHVPVFVLGSSTDSAEIAAKLGLPYAFGAQFSPHSMEEALSIYRENFQPSSYLQEPYVIACINVIAAESIDEASFISASHLQVYIDIYTNNLSKLIPPTENFLESLSQFELEILHSRLGYTIMGDRETIRRELIDFQQMYHADELIVLSNIYELSKEIQSYEILKQVVDELFKKRM | not soluble
16 | MGSDKIHHHHHHMLGVCYYPEHWGTEKVEEDFRRMKELGIEYVRIGEFAWSRIESERGKFNWDWLDKTLELAEKMGLKIVLGTPTATPPKWLIDEHPEILPVDKDGRVKNFGSRRHYCFSSPVYREEVKRIVTIIVKRYGKHPAVAGWQTDNEYGCHDTVRCYCPRCKKAFQKWLERKYEGDIKKLNEAWGTVFWSQEYRSFDEIELPNLTPADPNPSHLLDYYRLASDQVVEFNKLQVEIIREYSPGRFITHNFMSGFTDFDHYKLSKDLDFATWDNYPLGHTLVFLRMKGETKNPFDRVGHPDIISFSHDLYRGVGRGRFWVMEQQAGPVNWAPYNLWPAKGAVRLWTWQAFAHGAEVVSYFRWRQAPFAQEQMHSGLLAPDSAPYPGYHEVKQVFEELKNIDINEPVESEVALVFDYETAWVFSIQPHGEGVNYIDLVFRFYSALRRLGLNVDIVPPGSSLDGYKMIVVPSLAIVKEEVLDTFKKYDGLLVLGPRSGSKTETFQIPPEMPPGLLKEIIPVEVRQVESLGDNVETLVWNGKEYPVSIWREDVDPTITEVIARFKDGFGAIFRKENVFYLAFWPNGDFLVDFFEALSKESGIETKRMPEGVRIQRRGEYVFSFNFTSEEVDLEIPTKVQIVLGDQKIPPYGLLIWKENER | not soluble
17 | SLKEPRWRDPELPEVLAMLRHPVDPVKANAAAYLQHLCFENEGVKRRVRQLRGLPLLVALLDHPRAEVRRRACGALRNLSYGRDTDNKAAIRDCGGVPALVRLLRAARDNEVRELVTGTLWNLSSYEPLKMVIIDHGLQTLTHEVIVPHSGWEREPNEDSKPRDAEWTTVFKNTSGCLRNVSSDGAEARRRLRECEGLVDALLHALQSAVGRKDTDNKSVENCVCIMRNLSYHVHKEVPGADRYQEAEPGPLGSAVGSQRRRRDDASCFGGKKAKEEWFHQGKKDGEMDRNFDTLDLPKRTEAAKGFELLYQPEVVRLYLSLLTESRNFNTLEAAAGALQNLSAGNWMWATYIRATVRKERGLPVLVELLQSETDKVVRAVAIALRNLSLDRRNKDLIGSYAMAELVRNVRNAQAPPRPGACLEEDTVVAVLNTIHEIVSDSLDNARSLLQARGVPALVALVASSQSVREAKAASHVLQTVWSYKELRGTLQKDGWTKARFQSAAATAKGPK | soluble
18 | MGITDGVVVDLGGGTTGISILEKGKVIFVADEPTGGTHMTLVLAGSYGIDFETAEDIKTDKKKEKEVFVQITPVLQKMAAIVKKYIKDYKVKDVFLVGGACSFDGSESIFERELGLNIYKPYMPVLEHHHHHH | not soluble
19 | GPLGSAGSSWQCDTCLLQNKVTDNKCIACQAAKLPLKETAKQTGIGTPSKSDKPASTSGTGFGDKFKPAIGTWDCDTCLVQNKPEAVKCVACETPKPG | soluble
20 | MKAKREALISLFHAIKEEKVDSDIIDLLLLINSIKGIYTTSSCSGRIGILEEPSLGAKPLSRWLIKVHRPMSFEEARDALKRAREGLIFLKSQPPIFHVVAETIENAKLVHEIGLASGFKYTTFKAISSRFLVEINGTEYLTVPLGKDGRIIASDEYLKFAISIGNKMLERGKSKLPRLRDNFEKIKKKLGEDPLFIQLKREILEILEHHHHHH | not soluble
21 | GPGSMAFHPRDAFILHQEQIQRYNEGDEVDTSAEQKVQIELQRLTDSESTVTIAFSHEDHTLGNPLRHVLMQNREVTSAGYAIPHPLEAKMLLHVQSTDYAVEAVAEGLERLASICDETLQSFEDCMHRMRCEGAKQE | not soluble
22 | MGSDKIHHHHHHVYNEFFHLRTKPFELLPDPDFLYPSKAHRKALAYFEYGLSERSGFILLTGEVGSGKTTLIREMLKRDLGRMVLSKVFNTRVDSTQLVAMINDDFGLETAGRDKMVMLRDLNDFLIDQYAAGRRAVLVIDEAQNLSQELLEEVRMLSNLETDSAKLLQIILVGQPELRDLLRSPALVQLRQRIQVHCHIAPLSQEELREYVLFRLERAGNRDAMEWGEGVFGLMHEATRGIPRLVNILCDYVLLDAYAAGRRSINSAELQDLLAELDFERQFWPVDETSAPAPAAEQQRRTAVRRDASSVARRMMLMLQDLGQRLDVLERGYEKSGPDMLADMAERLGALEKRVTVLAGRVESLHAERMQRGAAPQVQPYRQKPERRKGWFRRVFGGD | not soluble
